Results as given in patent US20210363215A1 (published 2021).
Each block holds one binder with its values, some of them ahead of it.

Molecular target: T1, MAGE-B2 (peptide MB2-231) peptide on HLA-A*02:01 (human)
T1 peptide: GVYDGEEHSV
Assay: multimer staining

binding result: recognises
B1: MAGE-B2-231 C5 TCR (TCR, V domains shown)
Valpha: KNQVEQSPQSLIILEGKNCTLQCNYTVSPFSNLRWYKQDTGRGPVSLTIMTFSENTKSNGRYTATLDADTKQSSLHITASQLSDSASYICVVISGFQKLVFGTGTRLLVSP
Vbeta: EAGVVQSPRYKIIEKKQPVAFWCNPISGHNTLYWYRQNLGQGPELLIRYENEEAVDDSQLPKDRFSAERLKGVDSTLKIQPAELGDSAVYLCASSFPKQGSYNEQFFGPGTRLTVL

binding result: recognises
B2: MAGE-B2 TCR of SEQ ID NOs 3 and 5 (TCR, V domains shown)
Valpha: GNSVTQMEGPVTLSEEAFLTINCTYTATGYPSLFWYVQYPGEGLQLLLKATKADDKGSNKGFEATYRKETTSFHLEKGSVQVSDSAVYFCALTNDYKLSFGAGTTVTVRA
Vbeta: DAMVIQNPRYQVTQFGKPVTLSCSQTLNHNVMYWYQQKSSQAPKLLFHYYDKDFNNEADTPDNFQSRRPNTSFCFLDIRSPGLGDAAMYLCATSRGGRYNEQFFGPGTRLTVL
